From patent US20190330277A1

Key:
Assay in all cases: ELISA, variant from culture supernatant on Ni-NTA plate
[1] = target: sc9-10_DS-CAV1_bRSV(RB94)_Fd_hp1_ig1
[2] = target: RB94 sc9 DS-CAV1 A149C-Y458C L373R Long
[3] = target: 391-2-DS-Cav1-IP-5
[4] = target: RB94 sc9 DS-CAV1 N183GC-N428C L373R Long K226L
[5] = target: RB94 sc9 DS-CAV1 A149C-Y458C L373R
[6] = target: RB94 site 0 hRSV bovSurf DS-Cav1-BZGJ9 Long FdPL
[7] = target: RB94 sc9 DS-CAV1 A149C-Y458C L373R Long S190V
[8] = target: 391-2-DS-Cav1-sc9 99C-362C
[9] = target: 391-2_DS-Cav1-tzsc7
[10] = target: RB94 sc9 DS-CAV1 N183GC-N428C L373R Long S190V
[11] = target: sc9-10_DS-CAV1_bRSV(RB94)_Fd_pm1_fp2_ig1
[12] = target: RB94 hu/bov DS-Cav1 Long FdPL
[13] = target: 391-2-DS-Cav1-sc9deleteFS 98C-361C
[14] = target: 391-2 hu/bov-DS-Cav1-BZGJ9 Long
[15] = target: 391-2_DS-Cav1-tzsc3
[16] = target: RB94 site 0 hRSV DS-Cav1-BZGJ9 Long FdPL
[17] = target: 391-2-DS-Cav1_ S398C-S485C
[18] = target: 391-2-DS-Cav1-sc9deleteFS 99C-362C
[19] = target: 391-2_DS-Cav1-tzsc5
[20] = target: 391-2-DS-Cav1-sc9 100C-361C
[21] = target: 391-2-DS-Cav1-BZGJ9_gyc1
[22] = target: RB94 hu/bov DS-CAV1 A149C-Y458C Long
[23] = target: 391-2-DS-Cav1-sc9 99C-361C
[24] = target: 391-2-DS-Cav1_ sc9_I28C-G464C
[25] = target: 391-2-DS-Cav1-IP-4
[26] = target: RB94 sc9 DS-CAV1 N183GC-N428C L373R
[27] = target: sc9-10_DS-CAV1_bRSV(RB94)_Fd_pm1_ig1
[28] = target: 391-2-DS-Cav1-BZGJ9 Long K226L
[29] = target: 391-2-DS-Cav1-sc9deleteFS 98C-362C
[30] = target: 391-2-DS-Cav1_ sc9_I395C-A490C
[31] = target: 391-2-DS-Cav1-BZGJ9_gyc7
[32] = target: 391-2-DS-Cav1_ sc9_S485C-A490C
[33] = target: 391-2wt-F_SC_11R
[34] = target: RB94 sc9 DS-CAV1 N183GC-N428C L373R Long
[35] = target: RB94 sc9 DS-CAV1 A149C-Y458C L373R Long K226L
[36] = target: 391-2-DS-Cav1-sc9deleteFS 99C-361C
[37] = target: 391-2-DS-Cav1-sc9deleteFS 100C-362C
[38] = target: 391-2-DS-Cav1_ I28C-G464C
[39] = target: RB94 DS-CAV1 T369C-T455C Long

motavizumab (antibody)
ELISA binding value [1]: 2.42 | ELISA binding value [2]: 0.512 | ELISA binding value [3]: 1.83 | ELISA binding value [4]: 0.633 | ELISA binding value [5]: 0.564 | ELISA binding value [6]: 2.21 | ELISA binding value [7]: 0.537 | ELISA binding value [8]: 0.393 | ELISA binding value [9]: 1.99 | ELISA binding value [10]: 0.617 | ELISA binding value [11]: 1.32 | ELISA binding value [12]: 1.44 | ELISA binding value [13]: 0.899 | ELISA binding value [14]: 1.7 | ELISA binding value [15]: 0.785 | ELISA binding value [16]: 2.26 | ELISA binding value [17]: 0.545 | ELISA binding value [18]: 0.612 | ELISA binding value [19]: 1.57 | ELISA binding value [20]: 1.63 | ELISA binding value [21]: 2.12 | ELISA binding value [22]: 0.79 | ELISA binding value [23]: 1.68 | ELISA binding value [24]: 0.569 | ELISA binding value [25]: 0.933 | ELISA binding value [26]: 1.04 | ELISA binding value [27]: 2.22 | ELISA binding value [28]: 1.94 | ELISA binding value [29]: 0.589 | ELISA binding value [30]: 0.891 | ELISA binding value [31]: 0.977 | ELISA binding value [32]: 0.595 | ELISA binding value [33]: 1.79 | ELISA binding value [34]: 0.488 | ELISA binding value [35]: 0.486 | ELISA binding value [36]: 0.606 | ELISA binding value [37]: 0.503 | ELISA binding value [38]: 1.21 | ELISA binding value [39]: 0.448
